Experimental data reported in patent US20200199244A1 (published 2020).
Where a chain is given by its changes, count along the chain named. Values joined by “and” are separate entries in the source; they are usually repeats but may differ in a detail not shown here. Equal entries are not always repeated.

T1: human CD40 (H76R, W109L, L121P) Fc fusion (human)
T1 construct: As m1 with H76R, W109L and L121P; also called hCD40-M5; not shown: human IgG1 Fc
T1 chain: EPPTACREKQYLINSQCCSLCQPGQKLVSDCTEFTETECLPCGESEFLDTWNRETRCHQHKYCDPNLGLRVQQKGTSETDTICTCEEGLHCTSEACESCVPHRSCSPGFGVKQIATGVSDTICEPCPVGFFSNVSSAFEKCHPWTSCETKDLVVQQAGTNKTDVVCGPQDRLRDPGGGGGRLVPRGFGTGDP

T2: wild type cynomolgus monkey CD40 Fc fusion (cynomolgus monkey; human)
T2 construct: also called wt-cyno-CD40; wt-cCD40; not shown: human IgG1 Fc
T2 chain: T1 chain with A95S, S106L, H142R, L172Q

T3: human CD40 (H76R, W109L, L121P) Fc fusion (human)
T3 construct: Same construct as wt-hCD40 with H76R, W109L and L121P; also called hCD40-M5; hCD40-M5 (H76R, W109L, L121P); not shown: human IgG1 Fc
T3 chain: T1 chain

T4: wild type cynomolgus monkey CD40 Fc fusion (cynomolgus monkey (Macaca …))
T4 construct: also called wt-cCD40; wt-cyno-CD40; not shown: human IgG1 Fc
T4 chain: T1 chain with A95S, S106L, H142R, L172Q

B1: BMS3h-38-211 (other)
VH: EVQLLASGGGLVQPGGSLRLSCAASGFTFEEEEMIWVRQAPGKGLEWVSAISRQGGSTYYADSVKGRFTISRDNSKNTLYLQMNSLRAEDTAVYYCGKEPFRYDYWGQGTLVTVSS
notes: domain antibody (dAb), single VH domain
B2: BMS3h-37-2 (other)
VH: EVQLLESGGGLVQPGGSLRLSCAASGFTFEWYEMQWVRRAPGKGLEWVSAISGDGYRTYYADSVKGRFTISRDNSKNTLYLQMNSLRAEDTAVYYCAKELGYFDYWGRGTLVTVSS
notes: as for B1
B3: BMS3h-37-11 (other)
VH: B2 VH with R39K, W106R
notes: as for B1
B4: BMS3h-56-262 (other)
VH: EVQLLESGGGLVQPGGSLRLSCAASGFTFRDYEMWWVRQAPGKGLERVSAINPQGTRTYYADSVKGRFTISRDNSKNTLYLQMNSLRAEDTAVYYCAKLPQLFHDRGQGTLVTVSS
notes: domain antibody (dAb): single human VH domain
B5: BMS3h-56-261 (other)
VH: B4 VH with Q101F, L102F, H104Q, D105E, R106W
notes: as for B4
B6: BMS3h-56-266 (other)
VH: B4 VH with Q101F, L102F, D105E, R106W
notes: as for B4
B7: BMS3h-56-258 (other)
VH: B4 VH with Q101F, L102Y, D105E, R106W
notes: as for B4
B8: BMS3h-56-270 (other)
VH: B4 VH with Q101T, H104Q, R106W
notes: as for B4
B9: BMS3h-56-269 (other)
VH: B4 VH with Q101F, L102R, H104S
notes: as for B4
B10: BMS3h-56-265 (other)
VH: B4 VH with H104Q, R106W
notes: as for B4
B11: BMS3h-56-1 (other)
VH: B4 VH with Q101F, L102T, H104E, R106W
notes: Anti-human CD40 domain antibody (dAb), single VH domain
B12: BMS3h-56-2 (other)
VH: B4 VH with Q101F, L102T, H104D, R106W
notes: as for B11
B13: BMS3h-38-2 (other)
VH: B1 VH with R53G, Q54S
notes: Human domain antibody (dAb), single VH domain
B14: BMS3h-38-211 (other)
VH: B1 VH
notes: as for B13
B15: BMS3h-38-215 (other)
VH: B1 VH with R53G, Q54L, G56W
notes: as for B13
B16: BMS3h-38-217 (other)
VH: B1 VH with Q54R, G56Y
notes: as for B13
B17: BMS3h-37-2 (other)
VH: B2 VH
notes: as for B13
B18: BMS3h-37-11 (other)
VH: B2 VH with R39K, W106R
notes: as for B13
B19: DMS0659 DOM7h-11-87-TVAAPS-BMS3h-56-201 (bispecific antibody)
chain: DIQMTQSPSSLSASVGDRVTITCRASRPIGTMLSWYQQKPGKAPKLLILAFSRLQSGVPSRFSGSGSGTDFTLTISSLQPEDFATYYCAQAGTHHTTFGQGTKVEIKRTVAAPSEVQLLESGGGLVQPGGSLRLSCAASGFTFRDYEMWWVRQAPGKGLERVSAINPQGTRTYYADSVKGRFTISRDNSKNTLYLQMNSLRAEDTAVYYCAKLPFYFQEWGQGTLVTVSS
notes: AlbudAb inline fusion (ILF): an anti-CD40 dAb and an anti-serum-albumin dAb joined by a linker in one polypeptide
B20: DMS0658 DOM7h-11-3-TVAAPS-BMS3h-56-201 (bispecific antibody)
chain: B19 chain with M32T, A50W, F51N, H95P
notes: as for B19
B21: DMS0660 DOM7h-11-3-TVAAPS-BMS3h-56-258 (bispecific antibody)
chain: B19 chain with M32T, A50W, F51N, H95P, Q218H
notes: as for B19
B22: DMS0661 DOM7h-11-87-TVAAPS-BMS3h-56-258 (bispecific antibody)
chain: B19 chain with Q218H
notes: as for B19

target: T5, human CD40 (W109R) Fc fusion (Chimpanzee CD40) (human, UniProt P25942 21-193); assay: SPR ProteOn XPR36;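 further: surface plasmon resonance with CD40-Fc fusions captured through their Fc on an anti-human IgG chip, sensorgrams reference-subtracted against surfaces lacking CD40-Fc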
T5 construct: As m1 with W109R (residue of chimpanzee CD40); also called hCD40-M3; not shown: human IgG1 Fc

binding result	Binder
no binding (tested: 405 nM)	B1
no binding (tested: 405 nM)	B2
no binding (tested: 405 nM)	B3

target: T6, human CD40 (W109L, L121P) Fc fusion (human, UniProt P25942 21-193); assay: SPR ProteOn XPR36;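 further: surface plasmon resonance with CD40-Fc fusions captured through their Fc on an anti-human IgG chip, sensorgrams reference-subtracted against surfaces lacking CD40-Fc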
T6 construct: As m1 with W109L and L121P; also called hCD40-M4; not shown: human IgG1 Fc

binding result	Binder
no binding (tested: 405 nM)	B1
no binding (tested: 405 nM)	B2
no binding (tested: 405 nM)	B3

Target: T1, human CD40 (H76R, W109L, L121P) Fc …
Assay: SPR ProteOn XPR36;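 further: surface plasmon resonance with CD40-Fc fusions captured through their Fc on an anti-human IgG chip, sensorgrams reference-subtracted against surfaces lacking CD40-Fc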

binding result	Binder
no binding (tested: 405 nM)	B1
no binding (tested: 405 nM)	B2
no binding (tested: 405 nM)	B3

Target: T2, wild type cynomolgus monkey CD40 Fc …
Assay: SPR ProteOn XPR36;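 further: surface plasmon resonance with CD40-Fc fusions captured through their Fc on an anti-human IgG chip, sensorgrams reference-subtracted against surfaces lacking CD40-Fc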

binding result	Binder
no binding (tested: 405 nM)	B1
no binding (tested: 405 nM)	B2
no binding (tested: 405 nM)	B3

target: human CD40 on RAMOS human B cells (human, UniProt P25942 21-277); assay: cell-based or functional assay

EC50 ICAM1 cell assay [nM]	Binder
135	B4
42.4	B5
31.9	B6
23	B7
93.8	B8
34.2	B9
289	B10

target: T7, wild type human CD40 Fc fusion (human, UniProt P25942 21-193); assay: SPR ProteOn XPR36, CD40-Fc captured, dAb analyte
T7 construct: also called wt-hCD40; not shown: human IgG1 Fc

Kd	Binder
3.3 nM and 6.1 nM	B1
2 nM	B2
1.9 nM and 2.3 nM	B3

target: T8, human CD40 (H76R) Fc fusion (human, UniProt P25942 21-193); assay: SPR ProteOn XPR36, CD40-Fc captured, dAb analyte
T8 construct: As m1 with H76R; also called hCD40-M1; not shown: human IgG1 Fc

Kd [nM]	Binder
4	B1
2.6	B2
2.4	B3

target: T9, human CD40 (W109L, L121P) Fc fusion (human, UniProt P25942 21-193); assay: SPR, ProteOn XPR36; CD40-Fc captured, dAb analyte
T9 construct: Same construct as wt-hCD40 with W109L and L121P; also called hCD40-M4; hCD40 M4 (W109L, L121P); not shown: human IgG1 Fc

Binder	binding result
B11	no binding (tested: dAb tested up to 405 nM)
B12	no binding (tested: dAb tested up to 405 nM)

Target: T3, human CD40 (H76R, W109L, L121P) Fc …
Assay: SPR, ProteOn XPR36; CD40-Fc captured, dAb analyte
Experimental: (§1) Assays were performed on a BioRad ProteOn XPR36 SPR instrument. The SPR surfaces were prepared by immobilizing 8 μg/ml anti-human IgG(Fc) antibody (Biacore/GE Healthcare) in 10 mM sodium acetate pH 4.5 on a BioRad GLC sensor chip using standard ethyl(dimethylaminopropyl) carbodiimide (EDC)/N-hydroxysuccinimide (NHS) chemistry, with ethanolamine blocking. The running buffer for immobilization and kinetic binding analysis was 10 mM sodium phosphate, 130 mM sodium chloride, 0.05% tween 20, pH 7.1. CD40-Fc fusion proteins at concentrations of 20 μg/ml were captured in the vertical orientation on these surfaces via the Fc tail, and reference surfaces lacking CD40-Fc proteins were used for reference subtraction. […] The surfaces were regenerated in both horizontal and vertical orientations with 30 s pulses of 3 M MgCl₂ followed by running buffer at 60 μl/min. Sensogram data was double-referenced and then fitted to a 1:1 Langmuir model using BioRad ProteOn Manager V.2.1.0.38 software, to determine the association rate constant (ka), the dissociation rate constant (kd), and the equilibrium dissociation constant (KD).

Binder	binding result
B11	no binding (tested: dAb tested up to 405 nM)
B12	no binding (tested: dAb tested up to 405 nM)

Target: T4, wild type cynomolgus monkey CD40 Fc …
Assay: SPR, ProteOn XPR36; CD40-Fc captured, dAb analyte
Experimental: as §1

Binder	binding result
B11	no binding (tested: dAb tested up to 405 nM)

target: T10, human CD40 expressed on stably transfected CHO-DG44 cells (human, UniProt P25942 21-277); assay: CHO-CD40 cell RBA, competition with IZ-CD40L (FMAT)
T10 construct: Cell-surface human CD40 in the CHO cell RBA; also called CHO-CD40; human CD40 CHO cells
Experimental: The mixture was incubated in the absence of light for 6 hours.

EC50 [nM]	Binder
42	B4
17	B5
27	B6
15	B7
91	B8
24	B9
88	B10

target: T11, human CD40 (BMS, CY24FEB06-01) (human, UniProt P25942 21-193); assay: ELISA RBA, competition with IZ-CD40L for soluble human CD40;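 further: Neutravidin-coated 384-well plates, dAb–human CD40 complex incubated 2 h at room temperature, read-out as absorbance at 450 nm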
T11 construct: Soluble human CD40 reagent of the ELISA RBA

EC50 [nM]	Binder
4	B4
5.7	B5
3.8	B6
5.2	B7
11.3	B8
3.3	B9
18.8	B10

target: T12, wild type human CD40 Fc fusion (human, UniProt P25942 21-193); assay: SPR (ProteOn XPR36), dAb over CD40-Fc captured by anti-human IgG(Fc)
T12 construct: also called wt-hCD40
Experimental: as §1

Kd [nM]	Binder
< 10	B13
< 10	B14
< 10	B15
< 10	B16
< 10	B17
< 10	B18

target: T13, human CD40 (H76R) Fc fusion (human, UniProt P25942 21-193); assay: as above
T13 construct: Built as wt-hCD40 with the printed substitution; also called hCD40-M1; hCD40 M1 (H76R)
Experimental: as §1

Kd [nM]	Binder
< 10	B13
< 10	B14
< 10	B15
< 10	B16
< 10	B17
< 10	B18

target: T14, cynomolgus serum albumin (cynomolgus, UniProt A2V9Z4 25-608); assay: SPR (BIAcore 3000), CSA amine-coupled on CM5 chip, ILF as analyte, 1:1 Langmuir fit, 25 C
T14 construct: Amine-coupled to a CM5 BIAcore chip; also called CSA; Cyno Serum Albumin
T14 sequence (A2V9Z4 25-608 limits assumed): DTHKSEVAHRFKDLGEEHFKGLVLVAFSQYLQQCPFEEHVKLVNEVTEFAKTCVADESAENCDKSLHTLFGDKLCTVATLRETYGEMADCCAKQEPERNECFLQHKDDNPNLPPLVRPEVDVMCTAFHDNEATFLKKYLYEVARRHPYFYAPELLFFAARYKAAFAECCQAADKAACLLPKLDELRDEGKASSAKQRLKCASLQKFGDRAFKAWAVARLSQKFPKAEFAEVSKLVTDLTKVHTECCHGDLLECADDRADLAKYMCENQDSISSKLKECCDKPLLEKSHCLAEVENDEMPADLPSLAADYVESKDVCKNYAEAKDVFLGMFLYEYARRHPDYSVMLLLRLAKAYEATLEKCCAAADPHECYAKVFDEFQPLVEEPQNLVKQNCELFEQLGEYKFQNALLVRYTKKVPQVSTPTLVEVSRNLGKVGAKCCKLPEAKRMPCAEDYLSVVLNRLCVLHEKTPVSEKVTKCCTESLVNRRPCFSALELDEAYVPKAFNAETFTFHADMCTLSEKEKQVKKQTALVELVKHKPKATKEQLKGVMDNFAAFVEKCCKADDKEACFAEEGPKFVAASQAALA
Text: (§2) A BIAcore™ 3000 instrument (GE Healthcare) was used to analyze the binding kinetics of anti-CD40-AlbudAb ILFs to human and cynomolgus serum albumin. Approximately 400 response units (RU) of human serum albumin (HSA) or cynomolgus serum albumin (CSA) were immobilized on a flow-cell of a CM5 BIAcore™ chip using an Amine Coupling Kit (GE Healthcare). A second flow cell without any ligand immobilized served as a reference flow-cell for inline referencing. An appropriate doubling dilution series of each dAb to be analyzed was prepared in HBS-EP buffer (0.01 M HEPES pH 7.4 with 0.15 M NaCl, 3 mM EDTA and 0.005% v/v Surfactant P20, GE Healthcare). Two hundred microlitres of each ILF were injected in duplicate using the instrument's KINJECT function. The injections were made across the serum albumin-immobilized and reference flow-cells in series, with inline subtraction of the signal from the reference cell. The experiment was performed at 25° C. and a flow rate of 40 μl/min of HBS-EP. After each injection had been completed, the dAb was allowed to dissociate from the ligand in buffer for 120 s before regeneration with a 10 μl injection of 10 mM glycine pH 2.0. A reference injection of HBS-EP buffer blank (containing no analyte) was also injected under the same conditions to serve as a second reference for subtraction from each analyte trace. BIAevaluation 4.1 software (GE Healthcare) was used to subtract both the reference flow-cell trace and the buffer blank trace from each analyte trace.
(§3) The same software was used to perform a simultaneous, global fit of a 1:1 (Langmuir) kinetic model to the association and dissociation phases of the analyte dilution series traces. This model yielded association and dissociation rate constants (kₐ and kd, respectively) and the equilibrium dissociation constant (KD) of the interaction.

koff	Binder
0.00237 s⁻¹ and 0.00337 s⁻¹ and 0.0024 s⁻¹	B19

target: T15, human serum albumin (human, UniProt P02768 25-609); assay: SPR (BIAcore 3000), HSA amine-coupled on CM5 chip, ILF as analyte, 1:1 Langmuir fit, 25 C
T15 construct: Amine-coupled to a CM5 BIAcore chip; also called HSA
T15 sequence (P02768 25-609 limits assumed): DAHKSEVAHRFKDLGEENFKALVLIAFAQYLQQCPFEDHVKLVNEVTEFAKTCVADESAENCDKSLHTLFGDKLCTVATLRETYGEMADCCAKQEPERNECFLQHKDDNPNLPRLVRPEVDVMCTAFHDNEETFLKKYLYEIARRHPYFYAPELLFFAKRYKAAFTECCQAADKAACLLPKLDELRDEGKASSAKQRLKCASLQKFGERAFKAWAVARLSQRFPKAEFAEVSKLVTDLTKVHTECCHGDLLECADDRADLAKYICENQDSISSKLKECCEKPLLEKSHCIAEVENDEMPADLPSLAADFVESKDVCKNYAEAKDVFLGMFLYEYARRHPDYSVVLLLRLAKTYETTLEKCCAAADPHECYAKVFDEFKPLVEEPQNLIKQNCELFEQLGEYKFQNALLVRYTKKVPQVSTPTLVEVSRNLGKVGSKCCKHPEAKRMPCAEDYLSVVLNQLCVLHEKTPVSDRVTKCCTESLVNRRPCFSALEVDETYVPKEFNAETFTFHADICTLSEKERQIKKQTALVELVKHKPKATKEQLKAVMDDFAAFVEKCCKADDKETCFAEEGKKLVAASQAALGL
Text: as §2, §3

koff	Binder
0.00117 s⁻¹ and 0.00169 s⁻¹ and 0.0012 s⁻¹	B19

target: T16, human CD40 (human, UniProt P25942 21-277); assay: CHO-CD40 cell RBA: competition with biotinylated human IZ-CD40L for human CD40 on CHO cells, fluorescence (FMAT); 0.1% BSA
T16 construct: Native on primary human tonsillar B cells, monocyte-derived dendritic cells and RAMOS cells; stably transfected on CHO-DG44 cells; also called hCD40

EC50 [nM]	Binder
7.2	B19
12.2	B20
21.8	B21
4.1	B22

target: T16, human CD40; assay: CHO-CD40 cell RBA: competition with biotinylated human IZ-CD40L for human CD40 on CHO cells, fluorescence (FMAT); 50 µM HSA

EC50 [nM]	Binder
3.3	B19
9.1	B20
13.1	B21
5.7	B22
